Measurements as given in article PMC5828360, “Identification and characterization of highly versatile peptide-vectors that bind non-competitively to the low-density lipoprotein receptor for in vivo targeting and delivery of small molecules and protein cargos” (PLoS ONE, 2018).

Target: human LDLR, endogenous on HUVEC (human (endogenous in HUVEC)) (UniProt P01130)
Test: flow cytometry on cells; 1.10^10 phage on 1.10^6 HUVEC, 20 min on ice, without or with LDL at 0.5 mg/mL; anti-M13 (anti-PVIII) and anti-hLDLR antibodies; signal in zone Q2

Sequence of human LDLR, endogenous on HUVEC (human (endogenous in HUVEC)) (P01130 22-860): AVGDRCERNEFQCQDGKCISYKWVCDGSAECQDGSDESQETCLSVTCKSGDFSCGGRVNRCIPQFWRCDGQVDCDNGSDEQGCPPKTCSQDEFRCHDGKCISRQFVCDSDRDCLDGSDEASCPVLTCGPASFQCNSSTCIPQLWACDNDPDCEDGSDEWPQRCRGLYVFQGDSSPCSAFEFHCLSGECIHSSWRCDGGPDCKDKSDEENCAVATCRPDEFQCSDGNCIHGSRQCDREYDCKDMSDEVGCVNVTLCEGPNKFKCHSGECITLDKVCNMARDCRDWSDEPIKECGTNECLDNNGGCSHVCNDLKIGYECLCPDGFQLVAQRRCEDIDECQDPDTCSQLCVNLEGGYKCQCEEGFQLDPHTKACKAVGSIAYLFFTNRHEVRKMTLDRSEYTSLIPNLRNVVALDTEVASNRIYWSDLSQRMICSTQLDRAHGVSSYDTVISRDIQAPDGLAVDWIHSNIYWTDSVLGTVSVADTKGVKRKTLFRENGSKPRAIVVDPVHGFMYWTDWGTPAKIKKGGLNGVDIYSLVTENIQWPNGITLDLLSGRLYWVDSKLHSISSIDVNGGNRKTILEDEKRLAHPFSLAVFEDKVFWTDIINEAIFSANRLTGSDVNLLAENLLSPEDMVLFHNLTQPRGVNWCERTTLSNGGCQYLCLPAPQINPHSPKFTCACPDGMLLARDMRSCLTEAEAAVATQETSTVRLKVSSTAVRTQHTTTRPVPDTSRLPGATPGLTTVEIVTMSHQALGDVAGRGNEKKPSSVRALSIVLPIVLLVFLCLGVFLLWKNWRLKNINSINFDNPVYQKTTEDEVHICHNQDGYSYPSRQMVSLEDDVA

percent reduction of the VH549 phage signal (Q2) with LDL at 0.5 mg/mL: 56%
Substance: low-density lipoprotein (LDL), P04114 28-4563
